Where a chain is given by its changes, count along the chain named. Values belong to the binder of their own block, whether it stands above or below them.
Tests used:
human TREM2 (human) [1] = target: T1, human TREM2 (human) (UniProt Q9NZC2); test: 1st screen, 110 nM Ab
T1 sequence (looked up): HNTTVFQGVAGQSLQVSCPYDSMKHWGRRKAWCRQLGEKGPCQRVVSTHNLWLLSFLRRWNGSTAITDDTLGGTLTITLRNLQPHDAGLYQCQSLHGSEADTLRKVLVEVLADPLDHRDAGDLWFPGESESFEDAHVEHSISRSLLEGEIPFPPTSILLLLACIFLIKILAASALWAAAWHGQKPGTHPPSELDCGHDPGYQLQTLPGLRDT

human TREM2 (human) [2] = target: T1, human TREM2 (human); test: 2nd screen, 100 nM Ab

B1: 6E7 variant V34 (antibody, V domains shown)
VH: EVQLVQSGAEVKKPGESLKISCKGSGYSFTSYWIAWVRQMPGKGLEWMGIIYPGDSDTRYSPSFQGQVTISADKSISTAYLQWSSLKASDTAMYFCARQRTFYYDSSDYFDYWGQGTLVTVSS
VL: DIQMTQSPSSVSASVGDRVTITCRASQGISSWLAWYQQKPGKAPKLLIYAASSLQDGVPSRFSGSGSGTDFTLTISSLQPEDFATYFCQQADSFPRTFGQGTKLEIK
Binding Signal (fold over 6E7 parental antibody) (human TREM2 (human) [1]): 0.34 fold
Binding Signal (fold over 6E7 parental antibody) (human TREM2 (human) [2]): 1.02 fold

B7: 6E7 variant V8 (antibody, V domains shown)
VH: B1 VH with R59K
VL: B1 VL with D56N
Binding Signal (fold over 6E7 parental antibody) (human TREM2 (human) [1]): 0.28 fold
Binding Signal (fold over 6E7 parental antibody) (human TREM2 (human) [2]): 0.77 fold

B8: 6E7 variant V7 (antibody, V domains shown)
VH: B1 VH with Y32E
VL: B1 VL with D56N
Binding Signal (fold over 6E7 parental antibody) (human TREM2 (human) [1]): 0.11 fold
Binding Signal (fold over 6E7 parental antibody) (human TREM2 (human) [2]): 0.32 fold

B10: 6E7 variant V42 (antibody, V domains shown)
VH: B1 VH with Y32A
VL: B1 VL with D56N
Binding Signal (fold over 6E7 parental antibody) (human TREM2 (human) [1]): 0.45 fold
Binding Signal (fold over 6E7 parental antibody) (human TREM2 (human) [2]): 0.41 fold

B11: 6E7 variant V55 (antibody, V domains shown)
VH: B1 VH with R59I, F64H
VL: B1 VL with D56N
Binding Signal (fold over 6E7 parental antibody) (human TREM2 (human) [1]): 0.24 fold
Binding Signal (fold over 6E7 parental antibody) (human TREM2 (human) [2]): 0.66 fold

B12: 6E7 variant V57 (antibody, V domains shown)
VH: B1 VH
VL: B1 VL with R24A, D56N
Binding Signal (fold over 6E7 parental antibody) (human TREM2 (human) [1]): 0.84 fold
Binding Signal (fold over 6E7 parental antibody) (human TREM2 (human) [2]): 0.85 fold

B13: 6E7 variant V10 (antibody, V domains shown)
VH: B1 VH
VL: B1 VL with A50S, D56N
Binding Signal (fold over 6E7 parental antibody) (human TREM2 (human) [1]): 0.76 fold
Binding Signal (fold over 6E7 parental antibody) (human TREM2 (human) [2]): 0.7 fold

B15: 6E7 variant V66 (antibody, V domains shown)
VH: B1 VH with Y27T
VL: B1 VL with D56N
Binding Signal (fold over 6E7 parental antibody) (human TREM2 (human) [1]): 0.25 fold
Binding Signal (fold over 6E7 parental antibody) (human TREM2 (human) [2]): 0.74 fold

B17: 6E7 variant V46 (antibody, V domains shown)
VH: B1 VH
VL: B1 VL with S53T, D56N
Binding Signal (fold over 6E7 parental antibody) (human TREM2 (human) [1]): 0.83 fold
Binding Signal (fold over 6E7 parental antibody) (human TREM2 (human) [2]): 0.96 fold

B18: 6E7 variant V54 (antibody, V domains shown)
VH: B1 VH with Y32Q
VL: B1 VL with D56N
Binding Signal (fold over 6E7 parental antibody) (human TREM2 (human) [1]): 0.55 fold
Binding Signal (fold over 6E7 parental antibody) (human TREM2 (human) [2]): 0.54 fold

B21: 6E7 variant V45 (antibody, V domains shown)
VH: B1 VH
VL: B1 VL with W32F, D56N
Binding Signal (fold over 6E7 parental antibody) (human TREM2 (human) [1]): 0.43 fold
Binding Signal (fold over 6E7 parental antibody) (human TREM2 (human) [2]): 0.53 fold

B23: 6E7 variant V44 (antibody, V domains shown)
VH: B1 VH with G54S
VL: B1 VL with D56N
Binding Signal (fold over 6E7 parental antibody) (human TREM2 (human) [1]): 0.65 fold
Binding Signal (fold over 6E7 parental antibody) (human TREM2 (human) [2]): 0.52 fold

B25: 6E7 variant V56 (antibody, V domains shown)
VH: B1 VH with S61Q
VL: B1 VL with D56N
Binding Signal (fold over 6E7 parental antibody) (human TREM2 (human) [1]): 0.23 fold
Binding Signal (fold over 6E7 parental antibody) (human TREM2 (human) [2]): 0.59 fold

B28: 6E7 variant V9 (antibody, V domains shown)
VH: B1 VH with T101G
VL: B1 VL with D56N
Binding Signal (fold over 6E7 parental antibody) (human TREM2 (human) [1]): 0.67 fold
Binding Signal (fold over 6E7 parental antibody) (human TREM2 (human) [2]): 0.54 fold

B29: 6E7 variant V43 (antibody, V domains shown)
VH: B1 VH with D57G
VL: B1 VL with D56N
Binding Signal (fold over 6E7 parental antibody) (human TREM2 (human) [1]): 0.2 fold
Binding Signal (fold over 6E7 parental antibody) (human TREM2 (human) [2]): 0.33 fold

B31: 6E7 variant V58 (antibody, V domains shown)
VH: B1 VH
VL: B1 VL with A50K, D56N
Binding Signal (fold over 6E7 parental antibody) (human TREM2 (human) [1]): 0.28 fold
Binding Signal (fold over 6E7 parental antibody) (human TREM2 (human) [2]): 0.68 fold

B32: 6E7 variant V35 (antibody, V domains shown)
VH: B1 VH
VL: B1 VL with D56N, D92Y
Binding Signal (fold over 6E7 parental antibody) (human TREM2 (human) [1]): 0.21 fold
Binding Signal (fold over 6E7 parental antibody) (human TREM2 (human) [2]): 0.29 fold

B34: 6E7 variant V6 (antibody, V domains shown)
VH: B1 VH with Y32M
VL: B1 VL with D56N
Binding Signal (fold over 6E7 parental antibody) (human TREM2 (human) [1]): 0.2 fold
Binding Signal (fold over 6E7 parental antibody) (human TREM2 (human) [2]): 0.56 fold

B35: 6E7 variant V47 (antibody, V domains shown)
VH: B1 VH
VL: B1 VL with D56N, R96M
Binding Signal (fold over 6E7 parental antibody) (human TREM2 (human) [1]): 0.42 fold
Binding Signal (fold over 6E7 parental antibody) (human TREM2 (human) [2]): 0.47 fold

B36: 6E7 variant V59 (antibody, V domains shown)
VH: B1 VH
VL: B1 VL with D56N, Q89M
Binding Signal (fold over 6E7 parental antibody) (human TREM2 (human) [1]): 0.19 fold
Binding Signal (fold over 6E7 parental antibody) (human TREM2 (human) [2]): 0.6 fold

The remaining lines, values ahead:

Binding Signal (fold over 6E7 parental antibody) (human TREM2 (human) [1]): 0.41 fold
Binding Signal (fold over 6E7 parental antibody) (human TREM2 (human) [2]): 0.4 fold
B2: 6E7 variant V69 (antibody, V domains shown)
VH: B1 VH
VL: B1 VL with W32Y, D56N

Binding Signal (fold over 6E7 parental antibody) (human TREM2 (human) [1]): 0.31 fold
Binding Signal (fold over 6E7 parental antibody) (human TREM2 (human) [2]): 0.87 fold
B3: 6E7 variant V94 (antibody, V domains shown)
VH: B1 VH
VL: B1 VL with S52A, D56N

Binding Signal (fold over 6E7 parental antibody) (human TREM2 (human) [1]): 0.7 fold
Binding Signal (fold over 6E7 parental antibody) (human TREM2 (human) [2]): 0.52 fold
B4: 6E7 variant V79 (antibody, V domains shown)
VH: B1 VH with R59N
VL: B1 VL with D56N

Binding Signal (fold over 6E7 parental antibody) (human TREM2 (human) [1]): 0.25 fold
Binding Signal (fold over 6E7 parental antibody) (human TREM2 (human) [2]): 0.61 fold
B5: 6E7 variant V91 (antibody, V domains shown)
VH: B1 VH with G54D
VL: B1 VL with D56N

Binding Signal (fold over 6E7 parental antibody) (human TREM2 (human) [1]): 0.17 fold
Binding Signal (fold over 6E7 parental antibody) (human TREM2 (human) [2]): 0.23 fold
B6: 6E7 variant V81 (antibody, V domains shown)
VH: B1 VH
VL: B1 VL with W32L, D56N

Binding Signal (fold over 6E7 parental antibody) (human TREM2 (human) [1]): 0.86 fold
Binding Signal (fold over 6E7 parental antibody) (human TREM2 (human) [2]): 1.11 fold
B9: 6E7 variant V78 (antibody, V domains shown)
VH: B1 VH with S28R
VL: B1 VL with D56N

Binding Signal (fold over 6E7 parental antibody) (human TREM2 (human) [1]): 0.2 fold
Binding Signal (fold over 6E7 parental antibody) (human TREM2 (human) [2]): 0.29 fold
B14: 6E7 variant V83 (antibody, V domains shown)
VH: B1 VH
VL: B1 VL with D56N, D92V

Binding Signal (fold over 6E7 parental antibody) (human TREM2 (human) [1]): 0.79 fold
Binding Signal (fold over 6E7 parental antibody) (human TREM2 (human) [2]): 0.84 fold
B16: 6E7 variant V70 (antibody, V domains shown)
VH: B1 VH
VL: B1 VL with S52G, D56N

Binding Signal (fold over 6E7 parental antibody) (human TREM2 (human) [1]): 0.22 fold
Binding Signal (fold over 6E7 parental antibody) (human TREM2 (human) [2]): 0.65 fold
B19: 6E7 variant V92 (antibody, V domains shown)
VH: B1 VH with Y103H
VL: B1 VL with D56N

Binding Signal (fold over 6E7 parental antibody) (human TREM2 (human) [1]): 0.35 fold
Binding Signal (fold over 6E7 parental antibody) (human TREM2 (human) [2]): 1.05 fold
B20: 6E7 variant V93 (antibody, V domains shown)
VH: B1 VH
VL: B1 VL with S31G, D56N

Binding Signal (fold over 6E7 parental antibody) (human TREM2 (human) [1]): 0.33 fold
Binding Signal (fold over 6E7 parental antibody) (human TREM2 (human) [2]): 0.36 fold
B22: 6E7 variant V90 (antibody, V domains shown)
VH: B1 VH with Y32E
VL: B1 VL with S31R, D56N

Binding Signal (fold over 6E7 parental antibody) (human TREM2 (human) [1]): 0.59 fold
Binding Signal (fold over 6E7 parental antibody) (human TREM2 (human) [2]): 0.5 fold
B24: 6E7 variant V80 (antibody, V domains shown)
VH: B1 VH with T101N
VL: B1 VL with D56N

Binding Signal (fold over 6E7 parental antibody) (human TREM2 (human) [1]): 0.8 fold
Binding Signal (fold over 6E7 parental antibody) (human TREM2 (human) [2]): 0.84 fold
B26: 6E7 variant V67 (antibody, V domains shown)
VH: B1 VH with I50M
VL: B1 VL with D56N

Binding Signal (fold over 6E7 parental antibody) (human TREM2 (human) [1]): 0.37 fold
Binding Signal (fold over 6E7 parental antibody) (human TREM2 (human) [2]): 0.48 fold
B27: 6E7 variant V71 (antibody, V domains shown)
VH: B1 VH
VL: B1 VL with D56N, F94E

Binding Signal (fold over 6E7 parental antibody) (human TREM2 (human) [1]): 0.3 fold
Binding Signal (fold over 6E7 parental antibody) (human TREM2 (human) [2]): 0.79 fold
B30: 6E7 variant V82 (antibody, V domains shown)
VH: B1 VH
VL: B1 VL with A51G, D56N

Binding Signal (fold over 6E7 parental antibody) (human TREM2 (human) [1]): 0.44 fold
Binding Signal (fold over 6E7 parental antibody) (human TREM2 (human) [2]): 0.43 fold
B33: 6E7 variant V68 (antibody, V domains shown)
VH: B1 VH with Y103R
VL: B1 VL with D56N
